Data published in the supplement of paper PMC10598134.
± gives the standard deviation.

Test: collision cross section of unmodified peptide (TIMS, N2, iRT-aligned); higher = larger / more extended gas-phase ion
Procedure, shortened: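 Values are averages of 1–3 technical replicates of the most abundant feature for each charge state. Collision cross section was obtained from the Mason-Schamp equation after 1/K0 calibration with three reference ions and run-wise alignment to the median iRT peptide deviation. Synthetic peptide pools (iRT standard spiked 1:40) were separated on a 120-min nanoflow C18 gradient at 60 °C, analysed on a timsTOF Pro/HT (dda-PASEF, nitrogen, ~2.4 mbar) and identified with MaxQuant.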

Substance | collision cross section (charge state: 2) | collision cross section (charge state: 3)
LLRGVGGSHGR | 358.18 ± 0.097 Å² | 450.84 ± 3.9 Å²
LNAIYQNNLTK | 381.14 ± 0.16 Å² | –
LPEYPQVDDLLLR | 420.84 ± 0.76 Å² | –
LPPGALAHRLPTTGYLVYR | – | 556.45 ± 1.4 Å²
LPTTAASTPDAVDK | 396.7 ± 0.66 Å² | –
LQAAYAGDKADDIQK | 429.74 ± 2.5 Å² | 497.53 ± 4.8 Å²
LQDVSGQLSSSKK | 403.09 ± 1.5 Å² | 463.47 ± 6.3 Å²
LQEKVESAQSEQK | 416.22 ± 2.1 Å² | 487.5 ± 6.9 Å²
LQIASDENYK | 357.85 ± 0.48 Å² | –
LQLEIDQKK | 366.48 ± 1.6 Å² | 427.93 ± 3.7 Å²
LQLGTPPPLLAARLVPPR | – | 572.92 ± 0.68 Å²
LQNSYQPTNK | 358.91 ± 0.48 Å² | –
LRQQLQAK | 346.98 ± 0.88 Å² | 414.5 ± 11 Å²
LSEHATAPTR | 353.05 ± 0.78 Å² | 452.29 ± 0.22 Å²
LSESHPDATEDLQR | – | 474.77 ± 1.7 Å²
LSFGLEDEPLETATK | 426.44 ± 0.65 Å² | 496.99 ± 0.21 Å²
LSITGTYDLK | 371.61 ± 0.6 Å² | –
LSQEDPDYGIR | 376.56 ± 0.14 Å² | –
LSSETYSQAK | 348.96 ± 1.1 Å² | –
LSTPPPLAEEEGLASR | 436.07 ± 0.65 Å² | 482.68 ± 0.86 Å²
LTEKELAEAASK | 387.7 ± 1 Å² | 479.05 ± 4.3 Å²

Substance | collision cross section (charge state: 2) | collision cross section (charge state: 3)
LTSLNVKYNNDK | 409.04 ± 2 Å² | 487.29 ± 4.9 Å²
LVFDEYLK | 354.45 ± 0.59 Å² | –
LVLPSQAQARLPSGEVVK | 482.13 ± 2.1 Å² | 526.02 ± 0.85 Å²
LYAVHQEGNK | 357.2 ± 1.5 Å² | 449.31 ± 1.1 Å²
LYDIDVAK | 334.71 ± 0.73 Å² | –
LYLPVQNK | 336.72 ± 0.73 Å² | –
MFLSFPTTK | 348.96 ± 0.14 Å² | –
MTLSVLSR | 327.34 ± 0.14 Å² | –
NLVTGDHIPTPQDLPQR | – | 475.9 ± 0.23 Å²
PANEKATDDYHYEK | 416.54 ± 2.6 Å² | 493.57 ± 4.5 Å²
PARGLYSR | 333.72 ± 0.072 Å² | 420.97 ± 6 Å²
PASGAGAGAGAGKR | 378.29 ± 1.2 Å² | 457.42 ± 4 Å²
PATSYVR | 307.47 ± 0.15 Å² | –
PAVTAAPK | 290.54 ± 0.15 Å² | –
PDTQYTGR | 315.91 ± 0.73 Å² | –
PGGEGPQCEKTTDVK | 411.04 ± 2 Å² | 465.58 ± 3.8 Å²
PGGLGSSSLYGLGASRPR | 472.2 ± 0.073 Å² | 533.78 ± 0.86 Å²
PGLKGEQGEPGAPGIR | 410.66 ± 1.2 Å² | 510.99 ± 0.86 Å²
PGLQGPR | 285.1 ± 4.4 Å² | –
PGNSGIR | 278.56 ± 0.86 Å² | –
PGPKGEAGPTGPQGEPGVR | 431.75 ± 0.38 Å² | 479.17 ± 5.1 Å²

Substance | collision cross section (charge state: 2) | collision cross section (charge state: 3)
PGPQPSAETTR | 342.87 ± 0.58 Å² | 415.85 ± 2 Å²
PGPRGQR | 296.23 ± 0.53 Å² | –
PGPVGPPGSGGLK | 353.19 ± 0.41 Å² | –
PGSPGPPGSPGPR | 347.56 ± 0.41 Å² | 430.78 ± 12 Å²
PGTPAGYGRGR | 352.56 ± 0.57 Å² | 442.29 ± 3.7 Å²
PLPVALQTRLAK | 398.31 ± 0.59 Å² | 471.01 ± 3.4 Å²
PLRAASPFR | 352.16 ± 0.084 Å² | 447.55 ± 5.2 Å²
PPGFSPFR | 328.84 ± 0.79 Å² | –
PPGFSPFRSSR | 357.9 ± 0.86 Å² | 455.41 ± 1.7 Å²
PRGVISTPVIR | 371.76 ± 0.55 Å² | 450.44 ± 3.9 Å²
PRLPATGTFK | 354.31 ± 1.3 Å² | 450.95 ± 3.9 Å²
PRTPTAPAVNLAGAR | 406.96 ± 1.8 Å² | 484.37 ± 1.2 Å²
PSIHGGSGGRGVSVSSAR | – | 503.12 ± 0.69 Å²
PSVGSQSNQAGQGKR | 422.59 ± 2.3 Å² | 465.3 ± 4.2 Å²
PSVSTKLISK | 360.6 ± 1.3 Å² | 423.25 ± 3.8 Å²
QGNAVTLGDYYQGR | 415.78 ± 0.66 Å² | –
QQETAAAETETR | 373.98 ± 0.14 Å² | 456.85 ± 0.22 Å²
RFGGPVHHQAQR | 386.03 ± 0.46 Å² | 495.72 ± 1.2 Å²
RFSPPSSSLQPGK | 393.03 ± 0.67 Å² | 484.72 ± 0.22 Å²
RGATPPAPPR | 338.24 ± 0.44 Å² | 461.07 ± 2.4 Å²
RGATPPAPPRR | – | 465.11 ± 2.3 Å²

Substance | collision cross section (charge state: 2) | collision cross section (charge state: 3)
RGFGFGGFAISAGK | 395.08 ± 0.89 Å² | 486.34 ± 2.6 Å²
RGGFAVQAK | 337.58 ± 0.46 Å² | –
RGPPGAK | 308.91 ± 1.4 Å² | –
RGVGAGAIAK | 327.01 ± 0.73 Å² | –
RLDINTNTYTSQDLK | – | 533.11 ± 1 Å²
RLPNVHGR | 332.52 ± 0.039 Å² | 419.7 ± 5.1 Å²
RLPTTGYLVYR | 389.8 ± 0.35 Å² | 475.19 ± 2.9 Å²
SAGSVESPSVSSTHR | 394.4 ± 0.14 Å² | 493.72 ± 0.22 Å²
SALAAAQTQVAEYK | 422.48 ± 1.1 Å² | –
SDDESSQKDIK | 372.47 ± 1.1 Å² | 449.63 ± 0.82 Å²
SDSGKPYYYNSQTK | 416.14 ± 3 Å² | 478.86 ± 16 Å²
SEASSEFAKK | 351.87 ± 0.55 Å² | 422.04 ± 3.9 Å²
SEGFDTYR | 330.1 ± 0.73 Å² | –
SFDEVEGVFGRGGGR | 414.68 ± 0.96 Å² | 509.8 ± 1.2 Å²
SFEDIHQYR | 359.99 ± 0.48 Å² | 450.82 ± 1.1 Å²
SFSASGAQIVSR | 366.99 ± 0.14 Å² | –
SGATAGAAGGRGK | 361.16 ± 1.5 Å² | 443.5 ± 4.6 Å²
SGFGKFER | 339.56 ± 3 Å² | –
SGGGYGGDRGGGYGGDR | 393.08 ± 1.3 Å² | 460.09 ± 0.81 Å²
SGGGYGGDRSSGGGYSGDR | – | 476.79 ± 0.56 Å²
SGGRGVSVSSAR | 352.78 ± 0.057 Å² | 442.14 ± 3.7 Å²
